Laboratory results taken from patent EP2287285A2 (UAB RESEARCH FOUNDATION, dated 2011).

Experiments:
[1] = biological target: T1, DR4/hIgG1 (TRAIL-R1) fusion protein (human, UniProt O00220 24-239, limits assumed); experiment: ELISA on plates coated with 2 µg/ml DR4-Ig, HRP anti-Flag detection
T1 construct: also called DR4-Ig

[2] = biological target: T1, DR4/hIgG1 (TRAIL-R1) fusion protein; experiment: ELISA on plates coated with 2 µg/ml DR4-Ig (Fig. 1b, middle panel)
[3] = biological target: T2, murine DR5/hIgG1 fusion protein (murine; human, UniProt Q9QZM4 53-180, limits assumed); experiment: ELISA, absorbance 450 nm/650 nm (Fig. 1a, column 8 of lower panel)
T2 construct: also called murine homologue of DR5

[4] = biological target: T3, human DR4, full length, on the cell surface (Cos-7 cells transfected with full-length DR4 cDNA); human cell … (human, UniProt O00220 24-468); experiment: flow cytometry of transfected Cos-7 cells (Fig. 1c)
T3 construct: whole, on cells; also called cell surface DR4

[5] = biological target: T4, human DR5/hIgG1 fusion protein (immunogen); residues 1-180 of the extracellular portion of DR5 fused to the … (human, UniProt O14763 56-180); experiment: ELISA on coated DR5-Ig, one-site binding model, non-linear regression
T4 construct: range 1-180; also called DR5-IgG; DR5-IgG1

[6] = biological target: T5, TRAIL-R3 (DcR-1)/hIgG1 fusion protein (human, UniProt O14798 26-236, limits assumed); experiment: Western blot, 0.5 µg of each protein
T5 sequence (looked up): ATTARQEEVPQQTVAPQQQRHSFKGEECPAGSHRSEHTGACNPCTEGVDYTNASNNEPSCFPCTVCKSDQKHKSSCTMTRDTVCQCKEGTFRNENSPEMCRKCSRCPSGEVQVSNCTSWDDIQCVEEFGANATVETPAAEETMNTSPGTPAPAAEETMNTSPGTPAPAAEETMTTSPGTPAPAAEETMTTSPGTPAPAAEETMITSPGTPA

[7] = biological target: T6, TRAIL-R4 (DcR-2)/hIgG1 fusion protein (human, UniProt Q9UBN6 56-211, limits assumed); experiment: Western blot, 0.5 µg of each protein
T6 sequence (looked up): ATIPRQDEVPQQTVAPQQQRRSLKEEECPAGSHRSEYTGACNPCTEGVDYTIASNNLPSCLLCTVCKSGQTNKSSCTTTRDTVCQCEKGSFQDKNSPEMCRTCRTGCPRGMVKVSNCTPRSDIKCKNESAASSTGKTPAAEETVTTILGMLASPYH

[8] = biological target: T7, soluble TNFRI (soluble form of human TNFR1) (human, UniProt P19438 41-201, limits assumed); experiment: Western blot, 0.5 µg of each protein
T7 construct: Provided by Amgen; an Fc part is therefore uncertain and not written; also called TNF receptor I
T7 sequence (looked up): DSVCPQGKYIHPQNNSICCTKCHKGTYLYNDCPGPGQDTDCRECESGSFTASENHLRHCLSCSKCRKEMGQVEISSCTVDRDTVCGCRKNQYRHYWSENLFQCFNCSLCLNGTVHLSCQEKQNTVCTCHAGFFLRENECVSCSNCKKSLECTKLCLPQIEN

[9] = biological target: T8, CD95/hIgG1 (soluble form of human Fas) (human, UniProt P25445 26-173, limits assumed); experiment: Western blot, 0.5 µg of each protein
T8 construct: Provided by Amgen; also called Fas (CD95)
T8 sequence (looked up): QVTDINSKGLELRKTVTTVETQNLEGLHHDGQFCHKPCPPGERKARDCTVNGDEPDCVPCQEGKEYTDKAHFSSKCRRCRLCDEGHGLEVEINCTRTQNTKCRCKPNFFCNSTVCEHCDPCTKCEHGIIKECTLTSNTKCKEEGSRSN

[10] = biological target: T9, human DR5, full length, on the cell surface (Cos-7 cells transfected with full-length human DR5 cDNA); human … (human, UniProt O14763 56-440); experiment: radioisotope labeled TRA-8 on a breast cancer cell line in vitro
T9 construct: whole, on cells; also called cell surface DR5; human DR5 antigen

Binder	binding result [1]	binding result [2]	binding result [3]	binding result [4]	Kd [5] [nM]	binding result [6]	binding result [7]	binding result [8]	binding result [9]	Kd [10] [nM]
soluble recombinant human TRAIL (Alexis): extracellular domain of human TRAIL (aa residues 95 to 281) fused at the N-terminus to a FLAG-tag and an 8 amino acid … (ligand, UniProt P50591 95-281, looked up, range 95-281; Bought reagent; also called TRAIL-FLAG; soluble TRAIL; not shown: FLAG tag; 8 amino acid linker peptide) TSEETISTVQEKQQNISPLVRERGPQRVAAHITGTRGRSNTLSSPNSKNEKALGRKINSWESSRSGHSFLSNLHLRNGELVIHEKGFYYIYSQTYFRFQEEIKENTKNDKQMVQYIYKYTSYPDPILLMKSARNSCWSKDAEYGLYSIYQGGIFELKENDRIFVSVTNEHLIDMDHEASFFGAFLVG	binds									
TRA-8 monoclonal anti-human DR5 antibody (mouse-mouse hybridoma TRA-8, ATCC PTA-1428) (antibody, mouse IgG1, kappa, V domains shown, also called anti-DR5 antibody (clone: TRA-8)) VH: EVMLVESGGGLVKPGGSLKLSCAASGFTFSSYVMSWVRQTPEKRLEWVATISSGGSYTYYPDSVKGRFTISRDNAKNTLYLQMSSLRSEDTAMYYCARRGDSMITTDYWGQGTTLTVSS VL: DIVMTQSHKFMSTSVGDRVSITCKASQDVGTAVAWYQQKPGQSPKLLIYWASTRHTGVPDRFTGSGSGTDFTLTISNVQSEDLADYFCQQYSSYRTFGGGTKLEIKR		no binding	no binding	no binding	3	no binding (tested: 1 µg/ml)	no binding (tested: 1 µg/ml)	no binding (tested: 1 µg/ml)	no binding (tested: 1 µg/ml)	3
